Data from US20070249813A1 (AbbVie / Abbott, published 2007).
Where a chain is given by its changes, count along the chain named.

B1: VH1-D2/LOE7 (format printed as IgG1/IgG4 in Table 6, scFv/IgG1/IgG4 in Table 7) (antibody, V domains shown)
VH: QVQLVESGGGLVQPGRSLRLSCAASGFTFDDYAMHWVRQAPGKGLDWVSAITWNSGHIDYADSVEGRFAVSRDNAKNALYLQMNSLRPEDTAVYYCAKVSYLSTASSLDYWGQGTLVTVSS
VL: not shown
B2: 2SD4/2SD4 (format printed as scFv/IgG1/IgG4) (antibody, V domains shown)
VH: B1 VH with A97T, V99A, A105S, Y110N
VL: DIQMTQSPSSLSASIGDRVTITCRASQGIRNYLAWYQQKPGKAPKLLIYAASTLQSGVPSRFSGSGSGTDFTLTISSLQPEDVATYYCQKYNSAPYAFGQGTKVEIK
B3: VH1-D2/LOE7 scFv (scFv, V domains shown)
VH: B1 VH
VL: not shown
notes: scFv; not shown: the scFv linker and the order of the domains
B4: 2SD4 VH/VL1C1 scFv (scFv, V domains shown)
VH: B1 VH with A97T, V99A, A105S, Y110N
VL: B2 VL with A94D, A97T
notes: scFv
B5: 2SD4 VH/VLL0F10 scFv (scFv, V domains shown)
VH: B1 VH with A97T, V99A, A105S, Y110N
VL: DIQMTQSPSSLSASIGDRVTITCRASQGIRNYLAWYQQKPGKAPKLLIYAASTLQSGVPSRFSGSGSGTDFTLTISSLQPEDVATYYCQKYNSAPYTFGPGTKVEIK
notes: scFv
B6: VH1-D2.N/LOE7.A IgG4 (antibody, V domains shown)
VH: B1 VH with Y110N
VL: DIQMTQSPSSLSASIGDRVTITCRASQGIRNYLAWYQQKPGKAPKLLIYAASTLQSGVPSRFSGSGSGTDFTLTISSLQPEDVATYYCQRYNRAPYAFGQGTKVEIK
notes: IgG4
B7: VH1-D2.Y/LOE7.A IgG4 (antibody, V domains shown)
VH: B1 VH
VL: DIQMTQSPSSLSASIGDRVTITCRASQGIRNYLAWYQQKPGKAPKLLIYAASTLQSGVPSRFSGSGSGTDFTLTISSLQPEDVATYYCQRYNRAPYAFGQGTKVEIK
notes: IgG4
B8: VH1F6/2SD4 VL scFv (scFv, V domains shown)
VH: B1 VH with V99A, Y101F, A105S, D109E
VL: B2 VL
notes: scFv
B9: VH1G1/2SD4 VL scFv (scFv, V domains shown)
VH: B1 VH with V93A, V99A, A105S
VL: B2 VL
notes: scFv
B10: 2SD4 VH/EP B12 scFv (scFv, V domains shown)
VH: B1 VH with A97T, V99A, A105S, Y110N
VL: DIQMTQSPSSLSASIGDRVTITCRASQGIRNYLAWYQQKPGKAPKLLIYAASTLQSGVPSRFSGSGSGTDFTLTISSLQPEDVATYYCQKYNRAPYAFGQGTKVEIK
notes: scFv
B11: 2SD4 VH/VL100A9 scFv (scFv, V domains shown)
VH: B1 VH with A97T, V99A, A105S, Y110N
VL: B2 VL with N92S, A97T
notes: scFv
B12: VH1-D2.N/LOE7.T IgG4 (antibody, V domains shown)
VH: B1 VH with Y110N
VL: not shown
notes: IgG4
B13: VH1B12/2SD4 VL scFv (scFv, V domains shown)
VH: B1 VH with V99A, A105S, S106F
VL: B2 VL
notes: scFv
B14: 2SD4 VH/VL0.1H8 scFv (scFv, V domains shown)
VH: B1 VH with A97T, V99A, A105S, Y110N
VL: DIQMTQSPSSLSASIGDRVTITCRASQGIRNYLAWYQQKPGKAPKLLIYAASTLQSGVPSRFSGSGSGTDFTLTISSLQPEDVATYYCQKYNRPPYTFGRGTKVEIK
notes: scFv
B15: 2SD4 VH/VL10F4 scFv (scFv, V domains shown)
VH: B1 VH with A97T, V99A, A105S, Y110N
VL: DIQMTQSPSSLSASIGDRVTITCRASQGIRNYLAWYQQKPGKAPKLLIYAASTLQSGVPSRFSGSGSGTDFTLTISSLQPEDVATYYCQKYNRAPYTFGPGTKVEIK
notes: scFv
B16: VH1A11/2SD4 VL scFv (scFv, V domains shown)
VH: B1 VH with A97T, V99A, A105S, Y110D
VL: B2 VL
notes: scFv
B17: 2SD4 VH/VL1B7 scFv (scFv, V domains shown)
VH: B1 VH with A97T, V99A, A105S, Y110N
VL: B2 VL with K90Q, Y96D, A97T, F98W
notes: scFv
B18: 2SD4 VH/VL10E4 scFv (scFv, V domains shown)
VH: B1 VH with A97T, V99A, A105S, Y110N
VL: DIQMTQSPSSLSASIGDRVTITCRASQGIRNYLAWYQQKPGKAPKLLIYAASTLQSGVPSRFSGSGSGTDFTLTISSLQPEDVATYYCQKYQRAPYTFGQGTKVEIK
notes: scFv
B19: 2SD4 VH/VLLOH10 scFv (scFv, V domains shown)
VH: B1 VH with A97T, V99A, A105S, Y110N
VL: B2 VL with P95A, A97S
notes: scFv
B20: VH1-D2/2SD4 VL scFv (scFv, V domains shown)
VH: B1 VH
VL: B2 VL
notes: scFv
B21: VH1B11/2SD4 VL scFv (scFv, V domains shown)
VH: B1 VH with A97T, V99A, A105S, Y110K
VL: B2 VL
notes: scFv
B22: VH1-D2/EP B12 scFv (scFv, V domains shown)
VH: B1 VH
VL: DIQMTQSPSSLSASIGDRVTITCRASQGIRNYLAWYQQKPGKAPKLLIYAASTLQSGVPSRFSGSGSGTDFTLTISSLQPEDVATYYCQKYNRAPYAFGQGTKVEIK
notes: scFv
B23: 2SD4 VH/VL100D2 scFv (scFv, V domains shown)
VH: B1 VH with A97T, V99A, A105S, Y110N
VL: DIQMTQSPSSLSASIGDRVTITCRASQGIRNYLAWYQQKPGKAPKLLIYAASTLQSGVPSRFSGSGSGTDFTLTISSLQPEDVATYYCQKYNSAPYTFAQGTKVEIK
notes: scFv
B24: VH1D8/2SD4 VL scFv (scFv, V domains shown)
VH: B1 VH with K98R, V99A, A105S
VL: B2 VL
notes: scFv
B25: 2SD4 VH/VL0.1F4 scFv (scFv, V domains shown)
VH: B1 VH with A97T, V99A, A105S, Y110N
VL: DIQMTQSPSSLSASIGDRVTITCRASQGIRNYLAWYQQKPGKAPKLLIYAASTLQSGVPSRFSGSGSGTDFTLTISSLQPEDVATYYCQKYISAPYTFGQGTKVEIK
notes: scFv
B26: 2SD4 VH/VLLOH1 scFv (scFv, V domains shown)
VH: B1 VH with A97T, V99A, A105S, Y110N
VL: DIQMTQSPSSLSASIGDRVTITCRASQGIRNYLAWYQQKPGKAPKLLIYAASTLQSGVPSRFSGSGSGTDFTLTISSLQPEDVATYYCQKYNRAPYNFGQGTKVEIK
notes: scFv
B27: VH1E4/2SD4 VL scFv (scFv, V domains shown)
VH: B1 VH with V99A, A105S, D109H
VL: B2 VL
notes: scFv
B28: 2SD4 VH/VLLOG7 scFv (scFv, V domains shown)
VH: B1 VH with A97T, V99A, A105S, Y110N
VL: B2 VL with A97N
notes: scFv
B29: 2SD4 VH/VL1C7 scFv (scFv, V domains shown)
VH: B1 VH with A97T, V99A, A105S, Y110N
VL: B2 VL with A97N
notes: scFv
B30: 2SD4 VH/VLLOG9 scFv (scFv, V domains shown)
VH: B1 VH with A97T, V99A, A105S, Y110N
VL: B2 VL with N92T, A97T
notes: scFv

Columns and labels:
recombinant human TNFα = recombinant human TNFα (human, UniProt P01375 77-233, The active form is a noncovalent homotrimer; one protomer is given.); experiment: cell-based or functional assay
[1] = target: T1, biotinylated recombinant human TNFα (human, UniProt P01375 77-233, biotinylated (D-biotinyl-ε-aminocaproic acid N-hydroxysuccinimide ester, 2:1 molar ratio of biotin to rhTNFα)); experiment: SPR (BIAcore), biotinylated rhTNFα, format IgG1/IgG4
T1 construct: mature; Immobilized via streptavidin on the BIAcore chip; also called biotinylated rhTNFα; biotinylated rhTNF
Description: (§1) Before injection of the protein and immediately afterward, PBS buffer alone flowed through each flow cell. […] Antibodies (20 μg/ml) were diluted in PBS running buffer and 25 μl aliquots were injected through the immobilized protein matrices at a flow rate of 5 μl/min. Prior to injection of antibody, and immediately afterwards, PBS buffer alone flowed through each flow cell. The net difference in baseline signal and signal after completion of antibody injection was taken to represent the binding value of the particular sample. Biosensor matrices were regenerated using 100 mM HCI before injection of the next sample. To determine the off rate (Koff), on rate (Kₒₙ), association rate (Kₐ) and dissociation rate (Kd) constants, BIAcore kinetic evaluation software (version 2.1) was used.

[2] = target: T1, biotinylated recombinant human TNFα; experiment: SPR (BIAcore), biotinylated rhTNFα, scFv
Description: as §1

[3] = target: T1, biotinylated recombinant human TNFα; experiment: SPR (BIAcore), biotinylated rhTNFα, IgG4
Description: as §1

[4] = target: T1, biotinylated recombinant human TNFα; experiment: SPR (BIAcore), scFv; reference taken to be VH1-D2/LOE7
Description: as §1

[5] = target: T1, biotinylated recombinant human TNFα; experiment: SPR (BIAcore), scFv, reference VH1-D2/LOE7
Description: as §1

T1 sequence (P01375 77-233 limits assumed): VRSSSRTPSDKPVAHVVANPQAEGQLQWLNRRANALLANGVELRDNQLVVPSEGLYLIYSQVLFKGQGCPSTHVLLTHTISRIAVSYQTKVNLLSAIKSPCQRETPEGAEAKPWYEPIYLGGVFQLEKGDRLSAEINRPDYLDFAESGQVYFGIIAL
Chain of recombinant human TNFα (P01375 77-233 limits assumed): as above

Row | Binder | koff [2] [s⁻¹] | other results
1 | B1 |  | IC50, neutralization of TNFα-induced L929 cytotoxicity (recombinant human TNFα): 0.34 nM; koff [1]: 7.7e-05 s⁻¹
2 | B2 |  | IC50, neutralization of TNFα-induced L929 cytotoxicity (recombinant human TNFα): 300 nM
3 | B3 | 0.00046 | 
4 | B4 | 0.0136 | 
5 | B5 | 0.0134 | 
6 | B6 |  | IC50, neutralization of TNFα-induced L929 cytotoxicity (recombinant human TNFα): 0.062 nM; koff [3]: 3.2e-05 s⁻¹
7 | B7 |  | IC50, neutralization of TNFα-induced L929 cytotoxicity (recombinant human TNFα): 0.028 nM; koff [3]: 2.7e-05 s⁻¹
8 | B8 | 0.0229 | 
9 | B9 | 0.0214 | 
10 | B10 | 0.0067 | 
11 | B11 | 0.0133 | 
12 | B12 |  | IC50, neutralization of TNFα-induced L929 cytotoxicity (recombinant human TNFα): 0.13 nM; koff [3]: 2.1e-05 s⁻¹
13 | B13 | 0.0101 | 
14 | B14 | 0.0114 | 
15 | B15 | 0.0111 | 
16 | B16 | 0.0134 | 
17 | B17 | 0.013 | 
18 | B18 | 0.0096 | 
19 | B19 | 0.0112 | 
20 | B20 | 0.00194 | IC50, neutralization of TNFα-induced L929 cytotoxicity (recombinant human TNFα): 10 nM; fold faster off rate [4]: 5 fold
21 | B21 | 0.0098 | 
22 | B22 | 0.0008 | fold faster off rate against LOE7 [5]: 2 fold
23 | B23 | 0.0141 | 
24 | B24 | 0.0095 | 
25 | B25 | 0.0176 | 
26 | B26 | 0.0117 | 
27 | B27 | 0.0159 | 
28 | B28 | 0.0156 | 
29 | B29 | 0.02 | 
30 | B30 | 0.0146 | 
